{"source": "patent US5668264", "about": "“High affinity PDGF nucleic acid ligands” (NeXstar Pharmaceuticals, Inc.)", "binders": {"B1": {"name": "ssDNA ligand 38 (ssDNA)", "DNA": "ATCCGCCTGATTAGCGATACTAAAGTCGTGCAGGGTCCCCTGGAAGCATCTCCGATCCCAGACTTGAGCAAAATCACCTGCAGGGG"}, "B2": {"name": "ssDNA ligand 40 (ssDNA)", "DNA": "ATCCGCCTGATTAGCGATACTAGTGGAACAGGGCACGGAGAGTCAAACTTTGGTTTCCCCCACTTGAGCAAAATCACCTGCAGGGG"}, "B3": {"name": "ssDNA ligand 14 (ssDNA)", "DNA": "ATCCGCCTGATTAGCGATACTAGGCTTGACAAAGGGCACCATGGCTTAGTGGTCCTAGTACTTGAGCAAAATCACCTGCAGGGG"}, "B4": {"name": "ssDNA ligand 36 (ssDNA)", "DNA": "ATCCGCCTGATTAGCGATACTCCACAGGCTACGGCACGTAGAGCATCACCATGATCCTGTGACTTGAGCAAAATCACCTGCAGGGG"}, "B5": {"name": "ssDNA ligand 26 (ssDNA)", "DNA": "ATCCGCCTGATTAGCGATACTAGAGGGGAAGTAGGCTGCCTGACTCGAGAGAGTCCTCCCGACTTGAGCAAAATCACCTGCAGGGG"}, "B6": {"name": "20t-a (ssDNA)", "DNA": "TGGGAGGGCGCGTTCTTCGTGGTTACTTTTAGTCCCGT", "modifications": "3'-3' inverted T at 3' end (described for truncated ligands)"}, "B7": {"name": "41t (ssDNA)", "DNA": "TACTCAGGGCACTGCAAGCAATTGTGGTCCCAATGGGCTGAGTAT", "modifications": "3'-3' inverted T at 3' end"}, "B8": {"name": "36t (ssDNA)", "DNA": "CCACAGGCTACGGCACGTAGAGCATCACCATGATCCTGTGT", "modifications": "3'-3' inverted T at 3' end"}}}
{"molecular_target": "T1, PDGF AB (Homo sapiens, UniProt P04085;P01127 P04085:87-211,P01127:82-190)", "T1 sequence (P01127 82-190, chain 2 of 2, other chains not shown)": "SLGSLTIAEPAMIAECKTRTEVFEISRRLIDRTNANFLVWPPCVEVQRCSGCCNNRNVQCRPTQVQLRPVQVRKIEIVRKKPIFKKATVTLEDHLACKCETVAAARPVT", "experiment": "filter; among seven highest affinity ligands; data not shown", "details": "tags: R&D Systems 222-AB; chain copies: A/B chain heterodimer (inferred)"}
{"binder": "B1", "binding result": "binds"}
{"binder": "B2", "binding result": "binds"}
{"binder": "B3", "binding result": "binds"}
{"binder": "B4", "binding result": "binds"}
{"binder": "B5", "binding result": "binds"}
{"molecular_target": "T1, PDGF AB", "experiment": "filter; biphasic, higher affinity component", "details": "tags: R&D Systems 222-AB; chain copies: A/B chain heterodimer (inferred)", "protocol": "(§1) 22: 1859), and the equilibrium dissociation constants were determined by nitrocellulose filter binding. […] […]-[…]-3') SEQ ID NO: 88, and 26t (5'-[…] T-3') SEQ ID NO: 89.\n(§2) The binding data were analyzed according the formalism described in Jellinek et al., 1994: supra.", "units": {"Kd": "nM"}}
{"binder": "B6", "Kd": 0.082}
{"binder": "B7", "Kd": 0.051}
{"binder": "B8", "Kd": 0.082}
{"molecular_target": "PDGF BB (UniProt P01127 P01127:82-190)", "sequence (P01127 82-190, one chain of several)": "as the sequence (P01127 82-190, chain 2 of 2, other chains not shown) above", "experiment": "filter; biphasic, higher affinity component", "details": "chain copies: BB homodimer (inferred)", "protocol": "as §1, §2", "units": {"Kd": "nM"}}
{"binder": "B6", "Kd": 0.09}
{"binder": "B7", "Kd": 0.056}
{"binder": "B8", "Kd": 0.054}
{"molecular_target": "PDGF AA (UniProt P04085 P04085:87-211)", "experiment": "filter; monophasic", "details": "chain copies: AA homodimer (inferred)", "excerpt": "[…]-[…]-3') SEQ ID NO: 88, and 26t (5'-[…] T-3') SEQ ID NO: 89.", "units": {"Kd": "nM"}}
{"binder": "B8", "Kd": 72}
